These results are taken from publication PMC2843395 (Journal of molecular biology, 2010).

T1: S100B (tight site, EF2) (Bos taurus, UniProt P02638)
T1 sequence (P02638 1-92): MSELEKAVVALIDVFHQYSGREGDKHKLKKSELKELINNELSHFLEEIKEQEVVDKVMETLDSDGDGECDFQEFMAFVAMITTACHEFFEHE

B1: S100B (wild-type, recombinant) (natural protein, bovine)
chain: T1 sequence (P02638 1-92)
B2: TAMRA-TRTK12-am (peptide)
peptide: {TAMRA}-TRTKIDWNKILS-NH2
SMILES: CC[C@H](C)[C@H](NC(=O)[C@H](CCCCN)NC(=O)[C@H](CC(N)=O)NC(=O)[C@H](Cc1c[nH]c2ccccc12)NC(=O)[C@H](CC(=O)O)NC(=O)[C@@H](NC(=O)[C@H](CCCCN)NC(=O)[C@@H](NC(=O)[C@H](CCCNC(=N)N)NC(=O)[C@@H](NC(=O)c1ccc(-c2c3ccc(=[N+](C)C)cc-3oc3cc(N(C)C)ccc23)c(C(=O)[O-])c1)[C@@H](C)O)[C@@H](C)O)[C@@H](C)CC)C(=O)N[C@@H](CC(C)C)C(=O)N[C@@H](CO)C(N)=O
B3: TRTK-12 peptide (derived from the actin capping protein CapZ, residues 265-276) (peptide)
peptide: TRTKIDWNKILS

For series [1], the target named is S100B (Rattus norvegicus) (UniProt P04631). The conditions noted are these: cited from earlier work.
In series [2] the target is E72A mutant of S100B. Kind of series: fluorescence polarisation.
In series [3] the target is TAMRA-TRTK12-am. Kind of series: fluorescence polarisation. In general terms: Fluorescence polarisation rises when a labelled molecule tumbles more slowly, as on binding a larger partner.
Series [4] has as its target T1, S100B (tight site, EF2). The settings on record: p53^367–388; ref [21]; cited from earlier work.
For series [5], the target named is T1, S100B (tight site, EF2). The settings on record: p53^367–388; ref [21]; cited from earlier work. This is another data set of the same source.
Series [6] concerns the molecule itself. Kind of series: crystal structure.
In series [7] the target is B1. Kind of series: fluorescence polarisation.
Series [8] addresses B1. Kind of series: fluorescence polarisation. This is another data set of the same source.
For series [9], the target named is B1. Kind of series: crystal structure.
For series [10], the target named is B1. Kind of series: fluorescence polarisation. This is another data set of the same source.
Series [11] concerns the target B1. The series is described as follows: fluorescence polarisation. This is another data set of the same source.

Like-named read-outs stand apart in the source and are kept apart here. *: point of attachment. TAMRA = 5-carboxytetramethylrhodamine, CN(C)c1ccc2c(-c3ccc(C(=O)*)cc3C(=O)[O-])c3ccc(=[N+](C)C)cc-3oc2c1

What is called Kd is the free concentration of one partner at which half of the binding sites on the other are occupied at equilibrium, for simple one-to-one binding. Consider S100B (from UniProt P04631), for which the Kd in series [1] was below 1 nM.

As to “TRTK-12 peptide (derived from the actin capping protein CapZ, residues 265-276)”, in series [2], the Kapp turned out to be 110 µM and the dissociation constant (Kd) came out at 3200 nM. Take E72A mutant of S100B (natural protein): in series [3], the Kd came to 16800 nM. As to “p53^367–388: peptide derived from the negative regulatory domain of p53 (residues 367–388)”, in [4], the “Fold increase in Ca2+ affinity of S100B EF2 with p53 peptide bound” value is 3 fold. Further, the “Fold increase in Mn2+ binding of S100B with p53 peptide bound” value in series [5] is listed as 3 fold. For orientation: stoichiometry N means the number of molecules, sites or subunits per partner or assembly. In the case of B1, in series [6], the “stoichiometry N” value turned out to be 2. Regarding B2, the dissociation constant Kd in series [7] was 6000 ± 2000 nM; in [8], 1200 ± 200 nM.

With B3, the “stoichiometry N” value in [9] was 1 per S100B subunit. For the same molecule, the Kd in [10] stood at 3000 ± 1000 nM; in [11] it was 2900 ± 500 nM.
